Assay results reported in the nanobody polyreactivity screen of Harvey et al. (2022).

Assay: yeast display, Sf9 membrane polyspecificity reagent, FACS + sequencing; frameworks hold sequencing errors
In short: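 Genes from sorted yeast were amplified by colony PCR, read by MiSeq 2 × 250 sequencing and filtered on CDR length. These cells carried a synthetic nanobody library in Saccharomyces cerevisiae BJ5465 and were sorted by FACS into low and high (top ~1%) gates on anti-HA and streptavidin fluorescence. Polyreactivity is labelled according to the gate of origin.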

Row | Sequence | polyreactivity (PSR sort gate)
1 | QVQLVESGGGLVQAGGSLRLSCAASGRTFKNYAMGWYRQAPGKERELVAAISRRGSSTYYADSVKGRFTISRDNAKNTVYLQMNSLKPEDTAVYYCNAVKFTYGWLGYWGQGTQVTVSS | high polyreactivity
2 | QVQLVESGGGLVQAGGSLRLSCAASGRTFKPYAMGWYRQAPGIERELVARISGSGGSTYYADSVKGRFTISRDNGKNTVYLQLNSLKPEDTAVYYCATTPYYWFDYWGQGTQVTVSS | low polyreactivity
3 | QVQLVESGGGLVQAGGSLRLSCAASGRTFKPYAMGWYRQAPGKERELVAAISSGVSTHYADSVKGRFTISRDNAKNTVYLQMNSLKPEDTAVYYCAADRSSQFDLDYWGQGTRVTVSS | low polyreactivity
4 | QVQLVESGGGLVQAGGSLRLSCAASGRTFKPYAMGWYRQAPGKERELVAVISSTGSTKYADSVKGRFTISRDNAKNTVYLQMNSLKPEDTAVYYCAAQNTYIYYWGQGTQVTVSS | high polyreactivity
5 | QVQLVESGGGLVQAGGSLRLSCAASGRTFKQYAMGCYRQAPGKERELVAVITRTGGSTYYADSVKGRFTISRDNAKNTVYLLMNSLKPEDTAVYYCARYPPRGYIAWRYYDYDYWGQGTQVTVSS | high polyreactivity
6 | QVQLVESGGGLVQAGGSLRLSCAASGRTFKSYALGWYRQAPGKERELVATITRDGRTNYADSVKGRFTISRDNAKNTVYLQMNSLKPEDTAVYYCNADSRYRYDYWGQGTQVTVSS | low polyreactivity
7 | QVQLVESGGGLVQAGGSLRLSCAASGRTFKTYAMVWYRQAPGKERELVAAISRDGRTYYADSVKGRFTISRDNAKNTVYLQMNSLKPEDTAVYYCNKRSYRNGDYWGQGTQVTVSS | low polyreactivity
8 | QVQLVESGGGLVQAGGSLRLSCAASGRTFKVYAMGWYRPAPGKERELVAAISGSGGSTYYADSVKGRFTISRDNAKNTVYLQMNSLKPEDTAVYYCATDPSAPYTQLSSYYYWGQGTQVTVSS | low polyreactivity
9 | QVQLVESGGGLVQAGGSLRLSCAASGRTFKWYAMGWYRQAPGKERELVAAISSSGSTYYADSVKGRFTISRDNAKNTVYLQMNSLKPEDTAVYYCAVLRRYLVGNLVGYNYWGQGTQVTVSS | high polyreactivity
10 | QVQLVESGGGLVQAGGSLRLSCAASGRTFKYNAMGWYRQAPGKEREFVAAISSRGGSTYYADSVKGRFTISRDNAKNTVYLQMNSLKPEDTAVYYCNKLYGTRWSGLADDYWGQGTQVTVSS | high polyreactivity
11 | QVQLVESGGGLVQAGGSLRLSCAASGRTFKYNAMGWYRQAPGKERELVAAISSRGGSTYYADSVKGRFTISRDNAKNTVYLQMISLKPEDTAVYYGANATSSSEYGYDYWGQGTQVTVSS | high polyreactivity
12 | QVQLVESGGGLVQAGGSLRLSCAASGRTFKYNVMGWYRPAPGKERELVAAISSGGGTNYADSVKGRFTISRDNAKKTVYFQINSLKPEDTAVYYCAAKYAWRLLEMYYWGQGTQVTVSS | low polyreactivity
13 | QVQLVESGGGLVQAGGSLRLSCAASGRTFKYYAMGCYRQARGKERELVAAISGSGGSTYYADSVKGRFTISRDNAKNTVYLQMNSLKPEDTAVYYCATGGGKTRSYNYWGKGTQVTVSS | high polyreactivity
14 | QVQLVESGGGLVQAGGSLRLSCAASGRTFKYYAMGWYRQAPGKERELVAAISRSGGSTYADSVKGRFTISRDNAKNTVYLQMNSLKPEDTAVYYCATGWWRQGVASFDYDYWGQGTQVTVSS | high polyreactivity
15 | QVQLVESGGGLVQAGGSLRLSCAASGRTFKYYAMGWYRQAPGKERELVAAISRSGGSTYYADSVKGRFTISRDNAKNTVYLQMNSLKPEDTAVYYCNAEYLWIRHIAEDYWGQGTQVTVSS | low polyreactivity
16 | QVQLVESGGGLVQAGGSLRLSCAASGRTFKYYAMGWYRQAPGKERELVAAITTGGSTHYADSVKGRFTISRDNAKNTVYLQMNSLKPEDTAVYYCAAGPFARYDYWGQGTEVTVSS | low polyreactivity
17 | QVQLVESGGGLVQAGGSLRLSCAASGRTFKYYTMGWYRQAPGKERELVAAISGGGGITNYADSVKGRFTISRDNAKNTVYLQMNSQKPEDTAVYYCYARYNSWRYLAQYNYWGQGTQVTVSS | high polyreactivity
